In US20250025541A1:

Target: IL-4Ra of CTLL-2 cells (UniProt P16382)
Assay: cell-based or functional assay

Row | Substance | ED50 [ng · mL^-1], residual activity, CTLL-2 proliferation [ng/mL] | Inactivation factor (ED50 of the product divided by ED50 of the muIL-4 control), CTLL-2 proliferation
1 | muIL-4 immunogenic product (KLH) | 21.5 | 21
2 | muIL-4 immunogenic product (CRM197) (from UniProt P07750 21-140; P00587 26-560) | 620 | 370
